Measurements: PMC10397247

Key:
4H2888-AA = target: T1, 4H2888-AA; assay: two-hybrid library CCmax;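 note: natural log of median RNA to DNA barcode read ratio; higher means stronger binding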
T1 chain: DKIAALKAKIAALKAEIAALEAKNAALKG

4H3049-AA = target: T2, 4H3049-AA; assay: two-hybrid library CCmax; conditions: mean of both orientations;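 note: natural log of median RNA to DNA barcode read ratio; higher means stronger binding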
T2 chain: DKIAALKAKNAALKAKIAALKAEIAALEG

4H337-AA = target: T3, 4H337-AA; assay: two-hybrid library CCmax; conditions: mean of both orientations;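 note: natural log of median RNA to DNA barcode read ratio; higher means stronger binding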
T3 chain: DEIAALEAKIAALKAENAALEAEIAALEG

4H3587-AA = target: T4, 4H3587-AA; assay: two-hybrid library CCmax; conditions: mean of both orientations;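 note: natural log of median RNA to DNA barcode read ratio; higher means stronger binding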
T4 chain: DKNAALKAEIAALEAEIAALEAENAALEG

4H3590-AA = target: T5, 4H3590-AA; assay: two-hybrid library CCmax; conditions: mean of both orientations;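 note: natural log of median RNA to DNA barcode read ratio; higher means stronger binding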
T5 chain: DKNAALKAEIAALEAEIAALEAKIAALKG

4H3625-AA = target: T6, 4H3625-AA; assay: two-hybrid library CCmax; conditions: mean of both orientations;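 note: natural log of median RNA to DNA barcode read ratio; higher means stronger binding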
T6 chain: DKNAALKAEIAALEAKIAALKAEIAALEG

4H384-AA = target: T7, 4H384-AA; assay: two-hybrid library CCmax; conditions: mean of both orientations
T7 chain: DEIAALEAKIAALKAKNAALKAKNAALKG

4H3905-AA = target: T8, 4H3905-AA; assay: two-hybrid library CCmax; conditions: mean of both orientations
T8 chain: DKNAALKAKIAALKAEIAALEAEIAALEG

4H4038-AA = target: T9, 4H4038-AA; assay: two-hybrid library CCmax; conditions: mean of both orientations
T9 chain: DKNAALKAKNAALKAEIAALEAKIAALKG

4H43-AA = target: T10, 4H43-AA; assay: two-hybrid library CCmax; conditions: mean of both orientations
T10 chain: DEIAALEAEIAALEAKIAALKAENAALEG

4H451-AA = target: T11, 4H451-AA; assay: two-hybrid library CCmax; conditions: mean of both orientations
T11 chain: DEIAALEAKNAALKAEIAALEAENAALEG

4H510-AA = target: T12, 4H510-AA; assay: two-hybrid library CCmax; conditions: mean of both orientations
T12 chain: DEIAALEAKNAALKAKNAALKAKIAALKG

4H_APH = target: T13, 4H_APH; assay: two-hybrid library CCmax; conditions: mean of both orientations
T13 chain: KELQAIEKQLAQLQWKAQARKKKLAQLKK

4H_BCR = target: T14, 4H_BCR; assay: two-hybrid library CCmax; conditions: mean of both orientations
T14 chain: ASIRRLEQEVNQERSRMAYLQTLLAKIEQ

4H_GCN4 = assay: two-hybrid library CCmax
Sequence of 4H_GCN4 (chain, as listed by the source): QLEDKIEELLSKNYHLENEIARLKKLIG

GCN2_T = assay: two-hybrid library CCmax; conditions: mean of both orientations
O11-AA = target: T15, O11-AA; assay: two-hybrid library CCmax; conditions: mean of both orientations
T15 chain: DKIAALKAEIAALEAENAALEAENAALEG

O13-AA = target: T16, O13-AA; assay: two-hybrid library CCmax; conditions: mean of both orientations
T16 chain: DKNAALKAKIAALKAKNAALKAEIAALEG

O14-AA = target: T17, O14-AA; assay: two-hybrid library CCmax; conditions: mean of both orientations
T17 chain: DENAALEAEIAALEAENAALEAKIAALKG

4H2692-bH = target: T18, 4H2692-bH; assay: two-hybrid library CCNG1
T18 chain: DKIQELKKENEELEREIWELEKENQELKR

4H2717-bH = target: T19, 4H2717-bH; assay: two-hybrid library CCNG1
T19 chain: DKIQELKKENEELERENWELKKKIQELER

4H2839-bH = target: T20, 4H2839-bH; assay: two-hybrid library CCNG1
T20 chain: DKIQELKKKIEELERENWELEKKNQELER

4H2915-bH = target: T21, 4H2915-bH; assay: two-hybrid library CCNG1
T21 chain: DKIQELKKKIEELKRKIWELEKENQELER

4H3057-bH = target: T22, 4H3057-bH; assay: two-hybrid library CCNG1
T22 chain: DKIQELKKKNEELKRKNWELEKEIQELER

4H319-bH = target: T23, 4H319-bH; assay: two-hybrid library CCNG1
T23 chain: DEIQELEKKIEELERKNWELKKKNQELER

4H3277-bH = target: T24, 4H3277-bH; assay: two-hybrid library CCNG1
T24 chain: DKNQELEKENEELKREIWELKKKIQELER

4H348-bH = target: T25, 4H348-bH; assay: two-hybrid library CCNG1
T25 chain: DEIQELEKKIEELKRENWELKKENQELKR

4H40-bH = target: T26, 4H40-bH; assay: two-hybrid library CCNG1
T26 chain: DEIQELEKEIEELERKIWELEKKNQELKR

4H477-bH = target: T27, 4H477-bH; assay: two-hybrid library CCNG1
T27 chain: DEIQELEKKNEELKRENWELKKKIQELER

4H492-bH = target: T28, 4H492-bH; assay: two-hybrid library CCNG1
T28 chain: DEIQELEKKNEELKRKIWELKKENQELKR

4H741-bH = target: T29, 4H741-bH; assay: two-hybrid library CCNG1
T29 chain: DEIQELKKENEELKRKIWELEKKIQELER

DKIAALKAKIAALKAEIAALEAKNAALKG [4H2888-AA]
interaction score (4H2888-AA): 1.12 | interaction score (4H3049-AA): -0.982 | interaction score (4H337-AA): 1.21 | interaction score (4H3587-AA): 1.25 | interaction score (4H3590-AA): 2.23 | interaction score (4H3625-AA): 1.63 | interaction score (4H384-AA): -0.941 | interaction score (4H3905-AA): 1.91 | interaction score (4H4038-AA): 0.103 | interaction score (4H43-AA): 1.89 | interaction score (4H451-AA): -0.857 | interaction score (4H510-AA): -1.56 | interaction score (4H_APH): -2.17 | interaction score (4H_BCR): -2.06 | interaction score (4H_GCN4): -1.53 | interaction score (GCN2_T): -1.24 | interaction score (O11-AA): 0.766 | interaction score (O13-AA): -0.966 | interaction score (O14-AA): 1.71

DKIQELKKENEELEREIWELEKENQELKR [4H2692-bH]
interaction score (4H2692-bH): 0.733 | interaction score (4H2717-bH): -0.125 | interaction score (4H2839-bH): -0.447 | interaction score (4H2915-bH): 0.971 | interaction score (4H3057-bH): -0.0522 | interaction score (4H319-bH): -1.1 | interaction score (4H3277-bH): -0.368 | interaction score (4H348-bH): -0.787 | interaction score (4H40-bH): 0.218 | interaction score (4H477-bH): -0.436 | interaction score (4H492-bH): 1.54 | interaction score (4H741-bH): -1.04
